Experimental data: patent US10967068B2, “Stability-modulating linkers for use with antibody drug conjugates” (priority 2014, dated 2021)
Like-named read-outs stand apart in the source and are kept apart here.

How the values were obtained:
mouse plasma enzyme = biological target: T1, mouse plasma enzyme (Mus musculus, UniProt P23953); type: biochemical
T1 construct: 100-200 ug of ADC were incubated in mouse plasma (provided by Bioreclamation); tissue Bioreclamation; host or cells: mouse plasma
T1 sequence (P23953 19-554): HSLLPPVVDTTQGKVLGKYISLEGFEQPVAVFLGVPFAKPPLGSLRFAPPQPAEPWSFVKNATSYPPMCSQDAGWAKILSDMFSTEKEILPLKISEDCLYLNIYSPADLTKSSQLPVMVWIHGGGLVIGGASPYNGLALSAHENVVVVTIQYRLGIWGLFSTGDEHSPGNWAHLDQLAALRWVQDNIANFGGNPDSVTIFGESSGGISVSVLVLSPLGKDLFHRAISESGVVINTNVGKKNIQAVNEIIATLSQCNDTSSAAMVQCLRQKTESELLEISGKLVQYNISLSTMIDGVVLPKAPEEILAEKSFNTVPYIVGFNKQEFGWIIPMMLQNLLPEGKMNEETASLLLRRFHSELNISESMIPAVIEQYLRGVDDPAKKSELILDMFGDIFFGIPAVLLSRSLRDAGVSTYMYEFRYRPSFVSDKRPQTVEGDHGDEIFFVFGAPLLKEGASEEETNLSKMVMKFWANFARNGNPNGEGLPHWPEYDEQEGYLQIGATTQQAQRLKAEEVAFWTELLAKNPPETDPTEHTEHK
From the text: First, Balb/c serum (BioreclamationIVT) was depleted of IgG and albumin using commercially available MabSelect Protein A and Protein G resins (GE Healthcare), followed by Qproteome Murine Albumin Depletion Kit (Qiagen). The depleted serum was then subjected to sequential precipitation with ammonium sulfate. Fractions with the highest linker hydrolase activity were then applied to cation exchange HiTrap SP column (GE Healthcare) using step gradient elutions with sodium chloride. After that, SP fractions with the highest activity were applied to anion exchange HiTrap Q column (GE Healthcare) using step gradient elutions with sodium chloride. Fractions with the highest hydrolase activity were then combined and size fractionated using Superdex 200 column (GE Healthcare). […] To verify the correct identification of mouse Carboxylesterase 1C as the plasma enzyme responsible for linker cleavage, the recombinant protein was expressed in Expi 293 cells, and purified using a HIS tag following standard protocols.

[1] = In Vitro Stability Assay—Mouse Plasma; type: in vitro ADME; conditions: for DAR: before plasma incubation
Experimental: 100-200 ug of ADC were incubated in mouse plasma (provided by Bioreclamation) supplemented with 1×PBS to the final ADC concentration of 0.125 mg/mL. Following incubation for 3-7 days, samples were diluted with an equal volume of 1×PBS, and ADCs were isolated using Trop2 antigen coupled to CNBr-activated Sepharose (GE Healthcare) using standard protocols. Drug-antibody ratios were assessed before and after in vitro exposure using HIC methods and mass spectrometry.
DAR values for conjugates purified after plasma incubation were compared to DAR values prior to plasma treatment.

[2] = Stability in SCID mouse plasma of linker-payloads conjugated to Combo_Rd4_0.6nM_C29 anti-BCMA antibody; type: in vitro ADME; conditions: LCQ05 tag

For `O=[N+]([O-])c1ccc(OP(=O)(O)Oc2ccc([N+](=O)[O-])cc2)cc1` [BNPP], which “inhibition of the mouse plasma enzyme (linker cleavage)” value (mouse plasma enzyme) is on record?
The value was “inhibited”.

For `Cl.NCCc1ccc(S(=O)(=O)F)cc1` [Pefabloc], which “inhibition of the mouse plasma enzyme (linker cleavage)” value (mouse plasma enzyme; 1 mM, in vitro stability assay with anti-Trop2 L11B C6 vc0101 conjugate as substrate) is on record?
The value was “inhibited”.

Which “DAR after plasma incubation for 3 to 4.5 days” value ([1]; attachment position H16) does the source give for “Ac-Lys-Val-Cit-PABC-0101 [reference compound]” here?
Its value is 1.96.

What about the “Conjugate stability (%)” value ([1]; attachment position H16, % DAR remaining after plasma 3 or 4.5 days) of the same compound?
Its value is 100%.

And the DAR ([1]; attachment position H16)?
The DAR was 1.94.

And the DAR ([2]; Combo_Rd4_0.6nM_C29 anti-BCMA antibody, before incubation, HIC)?
The DAR was 2.0.

What about the “Conjugate stability (%)” value ([2]; anti-BCMA antibody, % DAR remaining after SCID mouse plasma 4.5 days) of the same compound?
The value was 99%.

What about the “DAR after plasma incubation for 4.5 days” value ([2]; anti-BCMA antibody, SCID mouse plasma) of the same compound?
The value was 1.98.

What does the source list for “C6vc0101 [Example 10, reference compound]”?
DAR ([1]; Trop-2 antibody attachment position TG6, HIC or mass spectrometry): 1.98; DAR ([1]; attachment position H7C): 1.52; DAR ([1]; attachment position H8A): 1.78; DAR ([1]; attachment position H10): 1.72; DAR ([1]; attachment position H16): 2.00; DAR ([1]; attachment position L11B): 1.88; DAR ([1]; attachment position LCQ04): 1.90; DAR ([1]; attachment position N297A): 1.89; DAR ([1]; attachment position N297Q): 3.94
